Earlier results, collected in publication PMC6873222.

Assays:
[1] = biological target: CD55 ECD (Homo sapiens) (UniProt P08174)
[2] = biological target: SIRPG ECD (Homo sapiens) (UniProt Q9P1W8)
UniProt Q9P1W8, sequence (Q9P1W8 29-360): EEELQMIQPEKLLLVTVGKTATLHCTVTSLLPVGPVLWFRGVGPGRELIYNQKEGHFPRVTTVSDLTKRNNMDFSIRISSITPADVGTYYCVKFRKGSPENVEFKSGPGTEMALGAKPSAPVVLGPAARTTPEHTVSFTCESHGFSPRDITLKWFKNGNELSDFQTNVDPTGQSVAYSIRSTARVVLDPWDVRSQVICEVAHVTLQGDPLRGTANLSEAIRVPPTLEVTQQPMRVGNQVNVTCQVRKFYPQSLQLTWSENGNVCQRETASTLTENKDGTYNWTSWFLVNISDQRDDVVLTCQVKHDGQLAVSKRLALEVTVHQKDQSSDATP

UniProt P08174, sequence (P08174 35-353): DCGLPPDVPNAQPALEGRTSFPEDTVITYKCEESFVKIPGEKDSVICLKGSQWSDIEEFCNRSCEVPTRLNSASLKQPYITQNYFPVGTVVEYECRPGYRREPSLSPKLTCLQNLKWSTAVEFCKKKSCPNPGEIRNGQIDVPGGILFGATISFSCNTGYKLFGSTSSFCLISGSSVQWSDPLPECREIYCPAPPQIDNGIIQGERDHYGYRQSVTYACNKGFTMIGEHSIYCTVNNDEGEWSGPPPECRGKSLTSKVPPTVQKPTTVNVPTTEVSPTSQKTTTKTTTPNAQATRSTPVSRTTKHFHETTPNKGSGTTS

| Substance | Kd [1] | Kd [2] |
| --- | --- | --- |
| CD97 ECD (from UniProt P48960) | > 80 µM |  |
| CD47 ECD (from UniProt Q08722) |  | 23 µM |
